Measurements: patent US20220056104A1 (Janssen / Centocor, published 2022)

T1: DcR3 (UniProt O95407 30-300, limits assumed)
T1 construct: the construct is not described; also called decoy receptor DcR3; TNFRSF6B
T1 sequence (looked up): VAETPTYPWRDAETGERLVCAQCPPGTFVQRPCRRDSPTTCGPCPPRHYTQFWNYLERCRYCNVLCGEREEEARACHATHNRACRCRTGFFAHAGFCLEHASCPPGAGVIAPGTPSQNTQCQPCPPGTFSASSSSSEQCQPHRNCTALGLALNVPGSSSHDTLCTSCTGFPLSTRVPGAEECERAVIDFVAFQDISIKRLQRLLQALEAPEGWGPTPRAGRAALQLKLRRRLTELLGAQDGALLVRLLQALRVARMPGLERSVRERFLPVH

T2: Recombinant DR3-Fc (R&D Systems, cat. #943-D3) (UniProt Q93038 25-199, limits assumed)
T2 construct: dimeric MW~92 kDa; also called DR3 receptor; Fc-DR3; not shown: Fc part of the bought fusion
T2 sequence (looked up): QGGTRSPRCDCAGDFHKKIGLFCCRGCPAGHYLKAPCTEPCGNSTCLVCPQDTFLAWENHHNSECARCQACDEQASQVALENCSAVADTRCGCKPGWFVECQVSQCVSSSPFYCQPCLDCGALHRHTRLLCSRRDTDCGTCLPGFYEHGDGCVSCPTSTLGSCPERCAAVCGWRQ


Key:
[1] = target: T1, DcR3; experiment: ELISA, DcR3
[2] = target: T2, Recombinant DR3-Fc (R&D Systems, cat. …); experiment: ELISA, DR3-Fc immobilized
Procedure: All ELISA-based measurements were collected in triplicate, and error values report the standard error between measurements. Recombinant DR3-Fc (R&D Systems, cat. #943-D3), dimeric MW˜92 kDa, was non-specifically immobilized onto plates (Nunc maxisorp, cat. #436110) in 100 μL DR3-Fc, diluted to 10 μg/mL onto a 96-well White Maxisorp plate (Nunc, cat #436110) (O/N, 4° C.). Plates were block for 1 hour at room temperature with 250 μl/well of casein buffer and blocking buffer was removed. 50 μL of TL1A variants were diluted in StartingBlock PBS (Thermo Fisher Scientific), at 25 μg/mL, diluting 3× over each well, according to the plate map description for 20160623) per well on a 96-well White Maxisorp plate (Nunc, cat #: 436110) (overnight at 4° C.).
Plates were washed three times with TBST. 100 μl/well polyclonal rabbit anti-human TL1A-biotin antibody (diluted 1:1000 in Starting Block PBS) was added and plates were incubated for 1 hour at room temperature with shaking at 150 rpm. TL1A-biotin antibody was removed and 100 μl/well streptavidin-HRP conjugate (diluted 1:10,000 in Starting Block PBS) was added to plates. Plates were incubated for 1 hour at room temperature with shaking at 150 rpm. Plates were washed three times with TBST. 100 μl/well POD Chemiluminescence substrate (Roche, cat #: 11582950001) was added immediately prior to reading plate luminescence using a Molecular Devices M5 plate reader with a delay setting of 100 ms.
Variants of TL1A were generated and tested for binding to DR3 and DcR3 by ELISA as described.

Binder | EC50 [1] | Rel EC50 [1] | EC50 [2] | Rel EC50 [2]
TL1W103 (His-TEV-TL1A T185A) (ligand, also called TL1W103 (T185A)) HHHHHHENLYFQGLKGQEFAPSHQQVYAPLRADGDKPRAHLTVVRQTPTQHFKNQFPALHWEHELGLAFTKNRMNYTNKFLLIPESGDYFIYSQVTFRGMTSECSEIRQAGRPNKPDSITVVITKVADSYPEPTQLLMGTKSVCEVGSNWFQPIYLGAMFSLQEGDKLMVNVSDISLVDYTKEDKTFFGAFLL | 11.5 nM | 2.5 ratio (head: nM) | 57.9 nM | 2.2 ratio (head: nM)
TL1W113 (His-TEV-TL1A P189S) (ligand, also called TL1W113 (P189S)) HHHHHHENLYFQGLKGQEFAPSHQQVYAPLRADGDKPRAHLTVVRQTPTQHFKNQFPALHWEHELGLAFTKNRMNYTNKFLLIPESGDYFIYSQVTFRGMTSECSEIRQAGRPNKPDSITVVITKVTDSYSEPTQLLMGTKSVCEVGSNWFQPIYLGAMFSLQEGDKLMVNVSDISLVDYTKEDKTFFGAFLL | 19.8 nM | 4.3 ratio (head: nM) | 1000 nM | 38.2 ratio (head: nM)
TL1W121 (His-TEV-TL1A S206E) (ligand, also called TL1W121 (S206E)) HHHHHHENLYFQGLKGQEFAPSHQQVYAPLRADGDKPRAHLTVVRQTPTQHFKNQFPALHWEHELGLAFTKNRMNYTNKFLLIPESGDYFIYSQVTFRGMTSECSEIRQAGRPNKPDSITVVITKVTDSYPEPTQLLMGTKSVCEVGENWFQPIYLGAMFSLQEGDKLMVNVSDISLVDYTKEDKTFFGAFLL | 17.2 nM | 3.7 ratio (head: nM) | 105 nM | 4 ratio (head: nM)
TL1W111 (His-TEV-TL1A S187D) (ligand, also called TL1W111 (S187D)) HHHHHHENLYFQGLKGQEFAPSHQQVYAPLRADGDKPRAHLTVVRQTPTQHFKNQFPALHWEHELGLAFTKNRMNYTNKFLLIPESGDYFIYSQVTFRGMTSECSEIRQAGRPNKPDSITVVITKVTDDYPEPTQLLMGTKSVCEVGSNWFQPIYLGAMFSLQEGDKLMVNVSDISLVDYTKEDKTFFGAFLL | 16.7 nM | 3.6 ratio (head: nM) | 44.2 nM | 1.7 ratio (head: nM)
TL1W117 (His-TEV-TL1A T192E) (ligand, also called TL1W117 (T192E)) HHHHHHENLYFQGLKGQEFAPSHQQVYAPLRADGDKPRAHLTVVRQTPTQHFKNQFPALHWEHELGLAFTKNRMNYTNKFLLIPESGDYFIYSQVTFRGMTSECSEIRQAGRPNKPDSITVVITKVTDSYPEPEQLLMGTKSVCEVGSNWFQPIYLGAMFSLQEGDKLMVNVSDISLVDYTKEDKTFFGAFLL | 12 nM | 2.6 ratio (head: nM) | 113 nM | 4.3 ratio (head: nM)
TL1W112 (His-TEV-TL1A P189F) (ligand, also called TL1W112 (P189F)) HHHHHHENLYFQGLKGQEFAPSHQQVYAPLRADGDKPRAHLTVVRQTPTQHFKNQFPALHWEHELGLAFTKNRMNYTNKFLLIPESGDYFIYSQVTFRGMTSECSEIRQAGRPNKPDSITVVITKVTDSYFEPTQLLMGTKSVCEVGSNWFQPIYLGAMFSLQEGDKLMVNVSDISLVDYTKEDKTFFGAFLL | 66.1 nM | 14.4 ratio (head: nM) | 202 nM | 7.7 ratio (head: nM)
TL1W110 (His-TEV-TL1A S187K) (ligand, also called TL1W110 (S187K)) HHHHHHENLYFQGLKGQEFAPSHQQVYAPLRADGDKPRAHLTVVRQTPTQHFKNQFPALHWEHELGLAFTKNRMNYTNKFLLIPESGDYFIYSQVTFRGMTSECSEIRQAGRPNKPDSITVVITKVTDKYPEPTQLLMGTKSVCEVGSNWFQPIYLGAMFSLQEGDKLMVNVSDISLVDYTKEDKTFFGAFLL | 15.8 nM | 3.4 ratio (head: nM) | 33.7 nM | 1.3 ratio (head: nM)
TL1W104 (His-TEV-TL1A T185L) (ligand, also called TL1W104 (T185L)) HHHHHHENLYFQGLKGQEFAPSHQQVYAPLRADGDKPRAHLTVVRQTPTQHFKNQFPALHWEHELGLAFTKNRMNYTNKFLLIPESGDYFIYSQVTFRGMTSECSEIRQAGRPNKPDSITVVITKVLDSYPEPTQLLMGTKSVCEVGSNWFQPIYLGAMFSLQEGDKLMVNVSDISLVDYTKEDKTFFGAFLL | 19.3 nM | 4.2 ratio (head: nM) | 49.4 nM | 1.9 ratio (head: nM)
TL1W116 (His-TEV-TL1A T192K) (ligand, also called TL1W116 (T192K)) HHHHHHENLYFQGLKGQEFAPSHQQVYAPLRADGDKPRAHLTVVRQTPTQHFKNQFPALHWEHELGLAFTKNRMNYTNKFLLIPESGDYFIYSQVTFRGMTSECSEIRQAGRPNKPDSITVVITKVTDSYPEPKQLLMGTKSVCEVGSNWFQPIYLGAMFSLQEGDKLMVNVSDISLVDYTKEDKTFFGAFLL | 23.3 nM | 5.1 ratio (head: nM) | 77 nM | 2.9 ratio (head: nM)
TL1W120 (His-TEV-TL1A S206K) (ligand, also called TL1W120 (S206K)) HHHHHHENLYFQGLKGQEFAPSHQQVYAPLRADGDKPRAHLTVVRQTPTQHFKNQFPALHWEHELGLAFTKNRMNYTNKFLLIPESGDYFIYSQVTFRGMTSECSEIRQAGRPNKPDSITVVITKVTDSYPEPTQLLMGTKSVCEVGKNWFQPIYLGAMFSLQEGDKLMVNVSDISLVDYTKEDKTFFGAFLL | 91 nM | 19.8 ratio (head: nM) | 114 nM | 4.4 ratio (head: nM)
TL1W106 (His-TEV-TL1A T185D) (ligand, also called TL1W106 (T185D)) HHHHHHENLYFQGLKGQEFAPSHQQVYAPLRADGDKPRAHLTVVRQTPTQHFKNQFPALHWEHELGLAFTKNRMNYTNKFLLIPESGDYFIYSQVTFRGMTSECSEIRQAGRPNKPDSITVVITKVDDSYPEPTQLLMGTKSVCEVGSNWFQPIYLGAMFSLQEGDKLMVNVSDISLVDYTKEDKTFFGAFLL | 79.9 nM | 17.4 ratio (head: nM) | 124 nM | 4.7 ratio (head: nM)

Further binders by falling EC50 [1], results first:

EC50 [1] | Rel EC50 [1] | EC50 [2] | Rel EC50 [2] | Binder
11.3 nM | 2.4 ratio (head: nM) | 180 nM | 6.9 ratio (head: nM) | TL1W105 (His-TEV-TL1A T185N) (ligand, also called TL1W105 (T185N)) HHHHHHENLYFQGLKGQEFAPSHQQVYAPLRADGDKPRAHLTVVRQTPTQHFKNQFPALHWEHELGLAFTKNRMNYTNKFLLIPESGDYFIYSQVTFRGMTSECSEIRQAGRPNKPDSITVVITKVNDSYPEPTQLLMGTKSVCEVGSNWFQPIYLGAMFSLQEGDKLMVNVSDISLVDYTKEDKTFFGAFLL
10.6 nM | 2.3 ratio (head: nM) | 14.2 nM | 0.5 ratio (head: nM) | TL1W115 (His-TEV-TL1A T192F) (ligand, also called TL1W115 (T192F)) HHHHHHENLYFQGLKGQEFAPSHQQVYAPLRADGDKPRAHLTVVRQTPTQHFKNQFPALHWEHELGLAFTKNRMNYTNKFLLIPESGDYFIYSQVTFRGMTSECSEIRQAGRPNKPDSITVVITKVTDSYPEPFQLLMGTKSVCEVGSNWFQPIYLGAMFSLQEGDKLMVNVSDISLVDYTKEDKTFFGAFLL
10 nM | 2.2 ratio (head: nM) | 23.3 nM | 0.9 ratio (head: nM) | TL1W114 (His-TEV-TL1A T192A) (ligand, also called TL1W114 (T192A)) HHHHHHENLYFQGLKGQEFAPSHQQVYAPLRADGDKPRAHLTVVRQTPTQHFKNQFPALHWEHELGLAFTKNRMNYTNKFLLIPESGDYFIYSQVTFRGMTSECSEIRQAGRPNKPDSITVVITKVTDSYPEPAQLLMGTKSVCEVGSNWFQPIYLGAMFSLQEGDKLMVNVSDISLVDYTKEDKTFFGAFLL
8.8 nM | 1.9 ratio (head: nM) | 41.7 nM | 1.6 ratio (head: nM) | TL1W118 (His-TEV-TL1A S206A) (ligand, also called TL1W118 (S206A)) HHHHHHENLYFQGLKGQEFAPSHQQVYAPLRADGDKPRAHLTVVRQTPTQHFKNQFPALHWEHELGLAFTKNRMNYTNKFLLIPESGDYFIYSQVTFRGMTSECSEIRQAGRPNKPDSITVVITKVTDSYPEPTQLLMGTKSVCEVGANWFQPIYLGAMFSLQEGDKLMVNVSDISLVDYTKEDKTFFGAFLL
8.1 nM | 1.8 ratio (head: nM) | 87.5 nM | 3.3 ratio (head: nM) | TL1W119 (His-TEV-TL1A S206F) (ligand, also called TL1W119 (S206F)) HHHHHHENLYFQGLKGQEFAPSHQQVYAPLRADGDKPRAHLTVVRQTPTQHFKNQFPALHWEHELGLAFTKNRMNYTNKFLLIPESGDYFIYSQVTFRGMTSECSEIRQAGRPNKPDSITVVITKVTDSYPEPTQLLMGTKSVCEVGFNWFQPIYLGAMFSLQEGDKLMVNVSDISLVDYTKEDKTFFGAFLL
6.2 nM | 1.4 ratio (head: nM) | 63.8 nM | 2.4 ratio (head: nM) | TL1W107 (His-TEV-TL1A D186Y) (ligand, also called TL1W107 (D186Y)) HHHHHHENLYFQGLKGQEFAPSHQQVYAPLRADGDKPRAHLTVVRQTPTQHFKNQFPALHWEHELGLAFTKNRMNYTNKFLLIPESGDYFIYSQVTFRGMTSECSEIRQAGRPNKPDSITVVITKVTYSYPEPTQLLMGTKSVCEVGSNWFQPIYLGAMFSLQEGDKLMVNVSDISLVDYTKEDKTFFGAFLL
